Measured values published in patent US20240158497A1 (published 2024).

T1: Macaca fascicularis GP130 extracellular domain expressed with a C-terminal myc-myc-hexahistidine tag (Macaca fascicularis, UniProt P40189 23-619 (human entry))
T1 construct: Monomeric reagent; also called mfGP130-mmH; mfGP130-MMH
T1 chain: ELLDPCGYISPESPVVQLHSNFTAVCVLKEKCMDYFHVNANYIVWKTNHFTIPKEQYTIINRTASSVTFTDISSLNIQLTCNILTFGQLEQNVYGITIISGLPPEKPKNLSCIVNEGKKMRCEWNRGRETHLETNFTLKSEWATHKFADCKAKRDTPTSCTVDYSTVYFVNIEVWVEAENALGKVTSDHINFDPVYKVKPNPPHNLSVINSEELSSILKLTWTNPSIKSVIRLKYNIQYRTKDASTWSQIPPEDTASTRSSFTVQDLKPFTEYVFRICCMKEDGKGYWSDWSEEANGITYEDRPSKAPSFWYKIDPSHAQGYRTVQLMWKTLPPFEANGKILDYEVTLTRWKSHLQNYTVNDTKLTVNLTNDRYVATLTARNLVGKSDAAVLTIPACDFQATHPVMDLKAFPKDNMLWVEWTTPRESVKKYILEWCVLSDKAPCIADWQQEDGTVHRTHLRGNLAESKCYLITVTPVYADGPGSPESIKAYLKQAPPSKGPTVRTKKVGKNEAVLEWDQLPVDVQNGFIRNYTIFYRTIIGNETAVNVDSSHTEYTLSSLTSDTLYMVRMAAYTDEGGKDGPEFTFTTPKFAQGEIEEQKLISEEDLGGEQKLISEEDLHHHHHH

T2: Macaca Fascicularis GP130 extracellular domain expressed with a C-terminal myc-myc-hexahistidine tag (Macaca fascicularis, UniProt P40189 23-619 (human entry))
T2 construct: also called mfGP130-MMH; mfGP130-mmH
T2 chain: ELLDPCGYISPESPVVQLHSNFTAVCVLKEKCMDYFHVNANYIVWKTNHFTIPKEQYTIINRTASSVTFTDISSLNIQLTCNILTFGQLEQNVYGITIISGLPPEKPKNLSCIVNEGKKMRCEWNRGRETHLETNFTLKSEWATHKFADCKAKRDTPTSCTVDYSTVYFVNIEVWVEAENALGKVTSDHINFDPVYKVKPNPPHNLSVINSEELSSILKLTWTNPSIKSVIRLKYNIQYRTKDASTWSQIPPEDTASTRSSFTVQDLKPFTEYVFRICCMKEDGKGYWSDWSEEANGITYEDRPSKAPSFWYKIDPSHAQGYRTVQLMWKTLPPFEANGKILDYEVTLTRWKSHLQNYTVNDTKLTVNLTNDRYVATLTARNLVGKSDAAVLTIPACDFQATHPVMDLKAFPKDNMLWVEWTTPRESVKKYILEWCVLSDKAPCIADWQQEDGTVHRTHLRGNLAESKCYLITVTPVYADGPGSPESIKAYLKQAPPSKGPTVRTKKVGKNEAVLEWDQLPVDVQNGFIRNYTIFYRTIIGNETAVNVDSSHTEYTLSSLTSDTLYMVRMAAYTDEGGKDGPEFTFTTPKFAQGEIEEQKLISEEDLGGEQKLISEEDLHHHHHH


Assays:
[1] = target: T1, Macaca fascicularis GP130 extracellular …; experiment: SPR (Biacore 4000), mAb captured on anti-human Fc, 25 C
Experimental: (§1) Equilibrium dissociation constant (KD) for different GP130 reagents binding to purified anti-GP130 monoclonal antibodies were determined using a real-time surface plasmon resonance based Biacore 4000 biosensor. All binding studies were performed in 10 mM HEPES, 150 mM NaCl, 3 mM EDTA, and 0.05% v/v Surfactant Tween-20, pH 7.4 (HBS-ET) running buffer at 25° C. and 37° C. The Biacore sensor surface was first derivatized by amine coupling with a monoclonal mouse anti-human Fc antibody (GE, #BR-1008-39) to capture anti-GP130 monoclonal antibodies. […] Reagents tagged with “mmH” are monomeric, whereas reagents tagged with “mFc” are dimeric. Thus, for example, “hGP130-mmH” is also referred to as “monomeric human GP130,” and “hGP130-mFc” is also referred to as “dimeric human GP130.”
(§2) The association rate (k a) and dissociation rate (kd) were determined by fitting the real-time binding sensorgrams to a 1:1 binding model with mass transport limitation using Scrubber 2.0c curve-fitting software. Binding dissociation equilibrium constant (KD) and dissociative half-life (t ½) were calculated from the kinetic rates as: […]

[2] = target: T1, Macaca fascicularis GP130 extracellular …; experiment: SPR (Biacore 4000), mAb captured on anti-human Fc, 37 C
Experimental: as §1, §2

[3] = target: T3, human GP130 extracellular domain expressed with a C-terminal myc-myc-hexahistidine tag (human, UniProt P40189 23-619); experiment: as above
T3 construct: Monomeric reagent; also called hGP130-mmH; hGP130-MMH
Experimental: as §1, §2

[4] = target: T4, human GP130 extracellular domain expressed with a C-terminal myc-myc-hexahistidine tag (human, UniProt P40189 23-619); experiment: SPR, bsAb captured by anti-hFc, 25C
T4 construct: also called hGP130-MMH; hGP130-mmH
Experimental: (§3) Equilibrium dissociation constants (KD values) for LEPR and GP130 binding to purified anti-LEPR/GP130 bispecific antibodies were determined using a real-time surface plasmon resonance biosensor using a Biacore 4000 instrument. All binding studies were performed in 10 mM HEPES, 150 mM NaCl, 3 mM EDTA, and 0.05% v/v Surfactant Tween-20, pH 7.4 (HBS-ET) running buffer at 25° C. and 37° C. The Biacore sensor surface was first derivatized by amine coupling with a monoclonal mouse anti-human Fc antibody (GE, #BR-1008-39) to capture anti-LEPR/GP130 bispecific antibodies. […] Different concentrations of LEPR or GP130 reagents were first prepared in HBS-ET running buffer (100 nM-3.7 nM; 3-fold serial dilution) and were injected over anti-human Fc captured anti-LEPR/GP130 bispecific antibody surface for 4 minutes at a flow rate of 30 μL/minute, while the dissociation of bispecific antibody bound LEPR or GP130 reagent was monitored for 10 minutes in HBS-ET running buffer. Kinetic association (kₐ) and dissociation (kd) rate constants were determined by fitting the real-time binding sensorgrams to a 1:1 binding model with mass transport limitation using Scrubber 2.0c curve-fitting software. Binding dissociation equilibrium constants (KD) and dissociative half-lives (t ½) were calculated from the kinetic rate constants as: […]

[5] = target: T2, Macaca Fascicularis GP130 extracellular …; experiment: SPR, bsAb captured by anti-hFc, 25C
Experimental: as §3

[6] = target: T4, human GP130 extracellular domain …; experiment: SPR, bsAb captured by anti-hFc, 37C
Experimental: as §3

[7] = target: T2, Macaca Fascicularis GP130 extracellular …; experiment: SPR, bsAb captured by anti-hFc, 37C
Experimental: as §3

Row | Binder | 100 nM Ag Bound [1] [RU] | Kd [1] [nM] | koff [1] [s⁻¹] | kon [1] [M⁻¹ s⁻¹] | t½ [1] [s] | 100 nM Ag Bound [2] [RU] | Kd [2] [nM] | koff [2] [s⁻¹] | kon [2] [M⁻¹ s⁻¹] | t½ [2] [s] | 100 nM Ag Bound [3] [RU] | Kd [3] [nM] | koff [3] [s⁻¹] | kon [3] [M⁻¹ s⁻¹] | t½ [3] [s] | 100 nM hGP130-MMH Bound (RU) [4] [RU] | 100 nM mfGP130-MMH Bound (RU) [5] [RU] | Kd [5] [nM] | koff [5] [s⁻¹] | kon [5] [M⁻¹ s⁻¹] | other results
1 | MAb16622 (antibody, V domains shown) VH: EVQLVESGGGVVRPGGSLRLSCTASGFTFDDYGMSWVRQAPGKGLEWVSGINWNGGRTEYADAVKGRFIISRDNAKNSLYLQMNSLRAEDTALYFCARTELRWDYWGQGTLVTVSS VL: not shown | 34 | 151 | 0.02 | 132000 | 36 | 28 | 198 | 0.0537 | 272000 | 12 | 30 | 225 | 0.0574 | 255000 | 12 |  |  |  |  |  | 
2 | MAb16623 (antibody, V domains shown) VH: EVQLVESGGGLVQPGGSLRLSCAASGLTFSSYEMNWVRQAPGKGLEWVSHISSAGSTKYYADSVKGRFTISRDNAKNSLFLQMNSLRAEDTAIYYCAGYNYAYYYFGVDVWGQGTTVTVSS VL: not shown | 74 | 25.5 | 0.00476 | 187000 | 144 | 60 | 44.3 | 0.0156 | 352000 | 42 | 68 | 32.2 | 0.0123 | 381000 | 54 |  |  |  |  |  | 

Continued, in another order:

Row | 100 nM Ag Bound [1] [RU] | Kd [1] [nM] | koff [1] [s⁻¹] | kon [1] [M⁻¹ s⁻¹] | t½ [1] [s] | 100 nM Ag Bound [2] [RU] | Kd [2] [nM] | koff [2] [s⁻¹] | kon [2] [M⁻¹ s⁻¹] | t½ [2] [s] | 100 nM Ag Bound [3] [RU] | Kd [3] [nM] | koff [3] [s⁻¹] | kon [3] [M⁻¹ s⁻¹] | t½ [3] [s] | 100 nM hGP130-MMH Bound (RU) [4] [RU] | 100 nM mfGP130-MMH Bound (RU) [5] [RU] | Kd [5] [nM] | koff [5] [s⁻¹] | kon [5] [M⁻¹ s⁻¹] | Binder | other results
3 |  |  |  |  |  |  |  |  |  |  |  |  |  |  |  | 7 | 7 | 186 | 0.0184 | 98500 | bsAb19155D (bispecific antibody, V domains shown, LEPR x GP130 bispecific with common light chain) VH 1: QVQLVESGGGVVQPGRSLRLSCTASGFTFSSYAMYWVRQAPGKGLEWVSVIYYDGSYKYYADSVKGRFTISRDNSKNTLYLQMDSLRAEDTAVYYCASYNWNYWYFDFWGRGTLVTVSS VH 2: EVQLVESGGGLVQPGGSLRLSCAASGFTFSTYWMNWVRQAPGKGLEWVANIKEDGSEKYYVDSVKGRFTISRDNAKNSLYLQMNSLRAEDTAVYYCAREGFGVVTYIWGQGTMVTVSS VL: not shown | t½ [5]: 36 s; 100 nM hGP130-MMH Bound (RU) [6]: 4 RU; binding result [6]: no binding (tested: 100 nM); 100 nM mfGP130-MMH Bound (RU) [7]: 3 RU
4 |  |  |  |  |  |  |  |  |  |  |  |  |  |  |  | 27 | 30 | 22.1 | 0.00162 | 73300 | bsAb19156D (bispecific antibody, V domains shown, LEPR x GP130 bispecific with common light chain) VH 1: QVQLVESGGGVVQPGRSLRLSCTASGFTFSSYAMYWVRQAPGKGLEWVSVIYYDGSYKYYADSVKGRFTISRDNSKNTLYLQMDSLRAEDTAVYYCASYNWNYWYFDFWGRGTLVTVSS VH 2: QVQLVESGGGLVKPGGSLRLSCAASGFTFSDYYMTWIRQTPGKGLDWVSYISSSGTNKYNADSVKGRFTISRDNAKNSLYLQMNSLRAEDTAVYYCVRDPPWGMDVWGQGTTVTVSS VL: not shown | Kd [4]: 24.7 nM; koff [4]: 0.00221 s⁻¹; kon [4]: 89500 M⁻¹ s⁻¹; t½ [4]: 300 s; t½ [5]: 420 s; 100 nM hGP130-MMH Bound (RU) [6]: 24 RU; Kd [6]: 95 nM; koff [6]: 0.00797 s⁻¹; kon [6]: 83900 M⁻¹ s⁻¹; t½ [6]: 84 s; 100 nM mfGP130-MMH Bound (RU) [7]: 26 RU; Kd [7]: 87.6 nM; koff [7]: 0.00767 s⁻¹; kon [7]: 87500 M⁻¹ s⁻¹; t½ [7]: 90 s
